Assay results as given in PMC10901376 (Science Advances, 2024).

Target: the molecule itself
Assay: cryo-EM structure

B1: S. aureus TarL H300N (enzyme, UniProt Q2G1B8 1-562, looked up)
chain: MVKSKIYIDKIYWERVQLFVEGHSENLDLEDSNFVLRNLTETRTMKANDVKIDGNQFVCRFNVAILDNGYYLPEDKYLLVNEQELDYIAQLNPDVINDAYQNLKPEQEEEYNELETQNGKINFLLQTYLKEFRKGGISKKTVYTVTPEISSDVNEFVLDVVVTTPEVKSIYIVRKYKELRKYFRKQSFNTRQFIFKAIFNTTKFFHLKKGNTVLFTSDSRPTMSGNFEYIYNEMLRQNLDKKYDIHTVFKANITDRRGIIDKFRLPYLLGKADYIFVDDFHPLIYTVRFRRSQEVIQVWNAVGAFKTVGFSRTGKKGGPFIDSLNHRSYTKAYVSSETDIPFYAEAFGIKEKNVVPTGVPRTDVLFDEAYATQIKQEMEDELPIIKGKKVILFAPTFRGSGHGTAHYPFFKIDFERLARYCEKNNAVVLFKMHPFVKNRLNIADKHKQYFVDVSDFREVNDILFITDLLISDYSSLIYEYAVFKKPMIFYAFDLEDYITTRDFYEPYESFVPGKIVQSFDALMDALDNEDYEGEKVIPFLDKHFKYQDGRSSERLVRNLFGS
- stoichiometry N: 4
